Laboratory results reported in patent publication US20110318339A1.

Legend:
[1] = target: rHuman Erythropoietin R/Fc Chimera, CF (Cat# 963-ER) (human) (UniProt P19235); assay: Multispot ECL; Fab 145 nM
[2] = target: rHuman HGF R/c-MET/Fc Chimera, CF (Cat# 358-MT/CF) (human) (UniProt P08581); assay: Multispot ECL; Fab 145 nM
[3] = target: rHuman Notch-1/Fc Chimera, CF (Cat# 3647-TK) (human) (UniProt P46531); assay: Multispot ECL; Fab 145 nM
[4] = target: rHuman P-Cadherin/Fc Chimera, CF (Cat# 861-PC) (human) (UniProt P22223); assay: Multispot ECL; Fab 145 nM
[5] = target: rHuman EGF R/Fc Chimera, CF (Cat# 344-ER) (human) (UniProt P00533); assay: Multispot ECL; Fab 145 nM
[6] = target: rHuman IGF-1 sR, (IGF-1 sR), CF (Cat# 391-GR) (human) (UniProt P08069); assay: Multispot ECL; Fab 145 nM
[7] = target: rHuman Erythropoietin R/Fc Chimera, CF (Cat# 963-ER) (human) (UniProt P19235); assay: Multispot ECL; Fab 580 nM
[8] = target: rHuman HGF R/c-MET/Fc Chimera, CF (Cat# 358-MT/CF) (human) (UniProt P08581); assay: Multispot ECL; Fab 580 nM
[9] = target: rHuman ErbB2/Fc Chimera, CF (Cat# 1129-ER) (human) (UniProt P04626); assay: Multispot ECL; Fab 580 nM
[10] = target: rHuman Notch-1/Fc Chimera, CF (Cat# 3647-TK) (human) (UniProt P46531); assay: Multispot ECL; Fab 580 nM
[11] = target: rHuman P-Cadherin/Fc Chimera, CF (Cat# 861-PC) (human) (UniProt P22223); assay: Multispot ECL; Fab 580 nM
[12] = target: rHuman EGF R/Fc Chimera, CF (Cat# 344-ER) (human) (UniProt P00533); assay: Multispot ECL; Fab 580 nM
[13] = target: rHuman IGF-1 sR, (IGF-1 sR), CF (Cat# 391-GR) (human) (UniProt P08069); assay: Multispot ECL; Fab 580 nM
[14] = target: rHuman Erythropoietin R/Fc Chimera, CF (Cat# 963-ER) (human) (UniProt P19235); assay: Multispot ECL; Fab 9.1 nM
[15] = target: rHuman HGF R/c-MET/Fc Chimera, CF (Cat# 358-MT/CF) (human) (UniProt P08581); assay: Multispot ECL; Fab 9.1 nM
[16] = target: rHuman ErbB2/Fc Chimera, CF (Cat# 1129-ER) (human) (UniProt P04626); assay: Multispot ECL; Fab 9.1 nM
[17] = target: rHuman Notch-1/Fc Chimera, CF (Cat# 3647-TK) (human) (UniProt P46531); assay: Multispot ECL; Fab 9.1 nM
[18] = target: rHuman P-Cadherin/Fc Chimera, CF (Cat# 861-PC) (human) (UniProt P22223); assay: Multispot ECL; Fab 9.1 nM
[19] = target: rHuman EGF R/Fc Chimera, CF (Cat# 344-ER) (human) (UniProt P00533); assay: Multispot ECL; Fab 9.1 nM
[20] = target: rHuman IGF-1 sR, (IGF-1 sR), CF (Cat# 391-GR) (human) (UniProt P08069); assay: Multispot ECL; Fab 9.1 nM
[21] = target: rHuman Erythropoietin R/Fc Chimera, CF (Cat# 963-ER) (human) (UniProt P19235); assay: Multispot ECL; Fab 36.3 nM
[22] = target: rHuman HGF R/c-MET/Fc Chimera, CF (Cat# 358-MT/CF) (human) (UniProt P08581); assay: Multispot ECL; Fab 36.3 nM
[23] = target: rHuman ErbB2/Fc Chimera, CF (Cat# 1129-ER) (human) (UniProt P04626); assay: Multispot ECL; Fab 36.3 nM
[24] = target: rHuman Notch-1/Fc Chimera, CF (Cat# 3647-TK) (human) (UniProt P46531); assay: Multispot ECL; Fab 36.3 nM
[25] = target: rHuman P-Cadherin/Fc Chimera, CF (Cat# 861-PC) (human) (UniProt P22223); assay: Multispot ECL; Fab 36.3 nM
[26] = target: rHuman EGF R/Fc Chimera, CF (Cat# 344-ER) (human) (UniProt P00533); assay: Multispot ECL; Fab 36.3 nM
[27] = target: rHuman IGF-1 sR, (IGF-1 sR), CF (Cat# 391-GR) (human) (UniProt P08069); assay: Multispot ECL; Fab 36.3 nM
[28] = target: rHuman P-Cadherin/Fc Chimera, CF (Cat# 861-PC) (human) (UniProt P22223); assay: Multispot ECL; Fab 930 nM
[29] = target: rHuman EGF R/Fc Chimera, CF (Cat# 344-ER) (human) (UniProt P00533); assay: Multispot ECL; Fab 930 nM
[30] = target: rHuman P-Cadherin/Fc Chimera, CF (Cat# 861-PC) (human) (UniProt P22223); assay: Multispot ECL; Fab 58.1 nM
[31] = target: rHuman EGF R/Fc Chimera, CF (Cat# 344-ER) (human) (UniProt P00533); assay: Multispot ECL; Fab 58.1 nM
[32] = target: rHuman P-Cadherin/Fc Chimera, CF (Cat# 861-PC) (human) (UniProt P22223); assay: Multispot ECL; Fab 232.5 nM
[33] = target: rHuman EGF R/Fc Chimera, CF (Cat# 344-ER) (human) (UniProt P00533); assay: Multispot ECL; Fab 232.5 nM
[34] = target: rHuman P-Cadherin/Fc Chimera, CF (Cat# 861-PC) (human) (UniProt P22223); assay: Multispot ECL; Fab 14.5 nM
[35] = target: rHuman EGF R/Fc Chimera, CF (Cat# 344-ER) (human) (UniProt P00533); assay: Multispot ECL; Fab 14.5 nM
[36] = target: rHuman Erythropoietin R/Fc Chimera, CF (Cat# 963-ER) (human) (UniProt P19235); assay: Multispot ECL; Fab 3.3 nM
[37] = target: rHuman HGF R/c-MET/Fc Chimera, CF (Cat# 358-MT/CF) (human) (UniProt P08581); assay: Multispot ECL; Fab 3.3 nM
[38] = target: rHuman ErbB2/Fc Chimera, CF (Cat# 1129-ER) (human) (UniProt P04626); assay: Multispot ECL; Fab 3.3 nM
[39] = target: rHuman Notch-1/Fc Chimera, CF (Cat# 3647-TK) (human) (UniProt P46531); assay: Multispot ECL; Fab 3.3 nM
[40] = target: rHuman EGF R/Fc Chimera, CF (Cat# 344-ER) (human) (UniProt P00533); assay: Multispot ECL; Fab 3.3 nM
[41] = target: rHuman IGF-1 sR, (IGF-1 sR), CF (Cat# 391-GR) (human) (UniProt P08069); assay: Multispot ECL; Fab 3.3 nM
[42] = target: rHuman Erythropoietin R/Fc Chimera, CF (Cat# 963-ER) (human) (UniProt P19235); assay: Multispot ECL; Fab 52.5 nM
[43] = target: rHuman HGF R/c-MET/Fc Chimera, CF (Cat# 358-MT/CF) (human) (UniProt P08581); assay: Multispot ECL; Fab 52.5 nM
[44] = target: rHuman ErbB2/Fc Chimera, CF (Cat# 1129-ER) (human) (UniProt P04626); assay: Multispot ECL; Fab 52.5 nM
[45] = target: rHuman Notch-1/Fc Chimera, CF (Cat# 3647-TK) (human) (UniProt P46531); assay: Multispot ECL; Fab 52.5 nM
[46] = target: rHuman EGF R/Fc Chimera, CF (Cat# 344-ER) (human) (UniProt P00533); assay: Multispot ECL; Fab 52.5 nM
[47] = target: rHuman IGF-1 sR, (IGF-1 sR), CF (Cat# 391-GR) (human) (UniProt P08069); assay: Multispot ECL; Fab 52.5 nM
[48] = target: rHuman Erythropoietin R/Fc Chimera, CF (Cat# 963-ER) (human) (UniProt P19235); assay: Multispot ECL; Fab […]
[49] = target: rHuman HGF R/c-MET/Fc Chimera, CF (Cat# 358-MT/CF) (human) (UniProt P08581); assay: Multispot ECL; Fab […]
[50] = target: rHuman ErbB2/Fc Chimera, CF (Cat# 1129-ER) (human) (UniProt P04626); assay: Multispot ECL; Fab […]
[51] = target: rHuman Notch-1/Fc Chimera, CF (Cat# 3647-TK) (human) (UniProt P46531); assay: Multispot ECL; Fab […]
[52] = target: rHuman EGF R/Fc Chimera, CF (Cat# 344-ER) (human) (UniProt P00533); assay: Multispot ECL; Fab […]
[53] = target: rHuman IGF-1 sR, (IGF-1 sR), CF (Cat# 391-GR) (human) (UniProt P08069); assay: Multispot ECL; Fab […]
[54] = target: rHuman Erythropoietin R/Fc Chimera, CF (Cat# 963-ER) (human) (UniProt P19235); assay: Multispot ECL; Fab 210 nM
[55] = target: rHuman HGF R/c-MET/Fc Chimera, CF (Cat# 358-MT/CF) (human) (UniProt P08581); assay: Multispot ECL; Fab 210 nM
[56] = target: rHuman ErbB2/Fc Chimera, CF (Cat# 1129-ER) (human) (UniProt P04626); assay: Multispot ECL; Fab 210 nM
[57] = target: rHuman Notch-1/Fc Chimera, CF (Cat# 3647-TK) (human) (UniProt P46531); assay: Multispot ECL; Fab 210 nM
[58] = target: rHuman EGF R/Fc Chimera, CF (Cat# 344-ER) (human) (UniProt P00533); assay: Multispot ECL; Fab 210 nM
[59] = target: rHuman IGF-1 sR, (IGF-1 sR), CF (Cat# 391-GR) (human) (UniProt P08069); assay: Multispot ECL; Fab 210 nM

Chain of rHuman Erythropoietin R/Fc Chimera, CF (Cat# 963-ER) (human) (P19235 25-250, change not shown): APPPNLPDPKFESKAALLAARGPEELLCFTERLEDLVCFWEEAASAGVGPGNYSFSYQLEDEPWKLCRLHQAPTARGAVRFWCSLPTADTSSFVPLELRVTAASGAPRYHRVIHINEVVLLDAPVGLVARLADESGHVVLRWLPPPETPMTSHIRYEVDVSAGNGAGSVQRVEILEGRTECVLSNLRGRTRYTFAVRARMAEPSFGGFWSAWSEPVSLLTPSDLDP

Fab VH4-34_IGHD7-27*01_IGHJ4*01 & V1-4_IGLJ4*01
ECL signal [1]: 845
ECL signal [2]: 1170
ECL signal [3]: 860
ECL signal [4]: 850
ECL signal [5]: 856
ECL signal [6]: 794
ECL signal [7]: 1580
ECL signal [8]: 2340
ECL signal [9]: 1710
ECL signal [10]: 1580
ECL signal [11]: 2240
ECL signal [12]: 1630
ECL signal [13]: 1360
ECL signal [14]: 697
ECL signal [15]: 894
ECL signal [16]: 987
ECL signal [17]: 754
ECL signal [18]: 589
ECL signal [19]: 800
ECL signal [20]: 788
ECL signal [21]: 722
ECL signal [22]: 1060
ECL signal [23]: 1030
ECL signal [24]: 633
ECL signal [25]: 684
ECL signal [26]: 831
ECL signal [27]: 799

Fab VH1-46_IGHD6-13*01_IGHJ4*01 & O1_IGKJ1*01
ECL signal [28]: 2440
ECL signal [29]: 3110
ECL signal [30]: 478
ECL signal [31]: 444
ECL signal [32]: 655
ECL signal [33]: 803
ECL signal [34]: 277
ECL signal [35]: 357

Fab VH4-31_IGHD2-15*01_IGHJ2*01 & V1-4_IGLJ4*01
ECL signal [36]: 695
ECL signal [37]: 849
ECL signal [38]: 1030
ECL signal [39]: 726
ECL signal [40]: 847
ECL signal [41]: 743
ECL signal [42]: 1320
ECL signal [43]: 1290
ECL signal [44]: 1510
ECL signal [45]: 1320
ECL signal [46]: 1110
ECL signal [47]: 911
ECL signal [48]: 776
ECL signal [49]: 981
ECL signal [50]: 930
ECL signal [51]: 669
ECL signal [52]: 824
ECL signal [53]: 814
ECL signal [54]: 2120
ECL signal [55]: 2060
ECL signal [56]: 1980
ECL signal [57]: 1970
ECL signal [58]: 1620
ECL signal [59]: 1430
